Measurements published in the Human Domainome abundance scans (Beltran et al. 2025).
± gives the uncertainty stated by the source.

B1: Apoptosis-associated speck-like protein containing a CARD, residues 114 to 194; numbered along this chain, Q9ULZ3 (parent)
chain: FIDQHRAALIARVTNVEWLLDALYGKVLTDEQYQAVRAEPTNPSKMRKLFSFTPAWNWTCKDLLLQALRESQSYLVEDLER
B2: POU domain, class 4, transcription factor 3, residues 185 to 256; numbered along this chain, Q15319 (parent)
chain: RELEAFAERFKQRRIKLGVTQADVGAALANLKIPGVGSLSQSTICRFESLTLSHNNMIALKPVLQAWLEEAE

Variants of: B1
Assay: abundance fitness (aPCA) (normalised: wild type 0, dead -1); higher = more abundant; growth selection in yeast, the domain comes from the species named
Details: Homo sapiens

Variant | abundance fitness
FIDCHRAALIARVTNVEWLLDALYGKVLTDEQYQAVRAEPTNPSKMRKLFSFTPAWNWTCKDLLLQALRESQSYLVEDLER [Q4C] | -0.43 ± 0.14
FIDAHRAALIARVTNVEWLLDALYGKVLTDEQYQAVRAEPTNPSKMRKLFSFTPAWNWTCKDLLLQALRESQSYLVEDLER [Q4A] | -0.358 ± 0.064
FIDDHRAALIARVTNVEWLLDALYGKVLTDEQYQAVRAEPTNPSKMRKLFSFTPAWNWTCKDLLLQALRESQSYLVEDLER [Q4D] | -0.432 ± 0.24
FIDFHRAALIARVTNVEWLLDALYGKVLTDEQYQAVRAEPTNPSKMRKLFSFTPAWNWTCKDLLLQALRESQSYLVEDLER [Q4F] | -0.34 ± 0.23
FWDQHRAALIARVTNVEWLLDALYGKVLTDEQYQAVRAEPTNPSKMRKLFSFTPAWNWTCKDLLLQALRESQSYLVEDLER [I2W] | -0.619 ± 0.43
YIDQHRAALIARVTNVEWLLDALYGKVLTDEQYQAVRAEPTNPSKMRKLFSFTPAWNWTCKDLLLQALRESQSYLVEDLER [F1Y] | -1 ± 0.43
DIDQHRAALIARVTNVEWLLDALYGKVLTDEQYQAVRAEPTNPSKMRKLFSFTPAWNWTCKDLLLQALRESQSYLVEDLER [F1D] | -0.685 ± 0.28
RIDQHRAALIARVTNVEWLLDALYGKVLTDEQYQAVRAEPTNPSKMRKLFSFTPAWNWTCKDLLLQALRESQSYLVEDLER [F1R] | -0.498 ± 0.26
MIDQHRAALIARVTNVEWLLDALYGKVLTDEQYQAVRAEPTNPSKMRKLFSFTPAWNWTCKDLLLQALRESQSYLVEDLER [F1M] | -0.661 ± 0.27
GIDQHRAALIARVTNVEWLLDALYGKVLTDEQYQAVRAEPTNPSKMRKLFSFTPAWNWTCKDLLLQALRESQSYLVEDLER [F1G] | -0.968 ± 0.25
HIDQHRAALIARVTNVEWLLDALYGKVLTDEQYQAVRAEPTNPSKMRKLFSFTPAWNWTCKDLLLQALRESQSYLVEDLER [F1H] | -0.375 ± 0.41
EIDQHRAALIARVTNVEWLLDALYGKVLTDEQYQAVRAEPTNPSKMRKLFSFTPAWNWTCKDLLLQALRESQSYLVEDLER [F1E] | -0.745 ± 0.27
CIDQHRAALIARVTNVEWLLDALYGKVLTDEQYQAVRAEPTNPSKMRKLFSFTPAWNWTCKDLLLQALRESQSYLVEDLER [F1C] | -1.04 ± 0.38
VIDQHRAALIARVTNVEWLLDALYGKVLTDEQYQAVRAEPTNPSKMRKLFSFTPAWNWTCKDLLLQALRESQSYLVEDLER [F1V] | -0.908 ± 0.15
LIDQHRAALIARVTNVEWLLDALYGKVLTDEQYQAVRAEPTNPSKMRKLFSFTPAWNWTCKDLLLQALRESQSYLVEDLER [F1L] | -0.809 ± 0.2
SIDQHRAALIARVTNVEWLLDALYGKVLTDEQYQAVRAEPTNPSKMRKLFSFTPAWNWTCKDLLLQALRESQSYLVEDLER [F1S] | -0.385 ± 0.21
FIEQHRAALIARVTNVEWLLDALYGKVLTDEQYQAVRAEPTNPSKMRKLFSFTPAWNWTCKDLLLQALRESQSYLVEDLER [D3E] | -0.387 ± 0.097

Variant | abundance fitness
FIRQHRAALIARVTNVEWLLDALYGKVLTDEQYQAVRAEPTNPSKMRKLFSFTPAWNWTCKDLLLQALRESQSYLVEDLER [D3R] | -0.544 ± 0.095
FILQHRAALIARVTNVEWLLDALYGKVLTDEQYQAVRAEPTNPSKMRKLFSFTPAWNWTCKDLLLQALRESQSYLVEDLER [D3L] | -0.881 ± 0.14
FIHQHRAALIARVTNVEWLLDALYGKVLTDEQYQAVRAEPTNPSKMRKLFSFTPAWNWTCKDLLLQALRESQSYLVEDLER [D3H] | -0.616 ± 0.16
FINQHRAALIARVTNVEWLLDALYGKVLTDEQYQAVRAEPTNPSKMRKLFSFTPAWNWTCKDLLLQALRESQSYLVEDLER [D3N] | -0.599 ± 0.12
FIQQHRAALIARVTNVEWLLDALYGKVLTDEQYQAVRAEPTNPSKMRKLFSFTPAWNWTCKDLLLQALRESQSYLVEDLER [D3Q] | -0.929 ± 0.19
FIGQHRAALIARVTNVEWLLDALYGKVLTDEQYQAVRAEPTNPSKMRKLFSFTPAWNWTCKDLLLQALRESQSYLVEDLER [D3G] | -0.805 ± 0.088
FISQHRAALIARVTNVEWLLDALYGKVLTDEQYQAVRAEPTNPSKMRKLFSFTPAWNWTCKDLLLQALRESQSYLVEDLER [D3S] | -0.592 ± 0.11
FITQHRAALIARVTNVEWLLDALYGKVLTDEQYQAVRAEPTNPSKMRKLFSFTPAWNWTCKDLLLQALRESQSYLVEDLER [D3T] | -0.907 ± 0.25
FICQHRAALIARVTNVEWLLDALYGKVLTDEQYQAVRAEPTNPSKMRKLFSFTPAWNWTCKDLLLQALRESQSYLVEDLER [D3C] | -0.822 ± 0.23
FIWQHRAALIARVTNVEWLLDALYGKVLTDEQYQAVRAEPTNPSKMRKLFSFTPAWNWTCKDLLLQALRESQSYLVEDLER [D3W] | -0.582 ± 0.13
FIPQHRAALIARVTNVEWLLDALYGKVLTDEQYQAVRAEPTNPSKMRKLFSFTPAWNWTCKDLLLQALRESQSYLVEDLER [D3P] | -0.951 ± 0.21
FIAQHRAALIARVTNVEWLLDALYGKVLTDEQYQAVRAEPTNPSKMRKLFSFTPAWNWTCKDLLLQALRESQSYLVEDLER [D3A] | -0.777 ± 0.12
FIFQHRAALIARVTNVEWLLDALYGKVLTDEQYQAVRAEPTNPSKMRKLFSFTPAWNWTCKDLLLQALRESQSYLVEDLER [D3F] | -0.749 ± 0.38
FIKQHRAALIARVTNVEWLLDALYGKVLTDEQYQAVRAEPTNPSKMRKLFSFTPAWNWTCKDLLLQALRESQSYLVEDLER [D3K] | -0.825 ± 0.44
FIIQHRAALIARVTNVEWLLDALYGKVLTDEQYQAVRAEPTNPSKMRKLFSFTPAWNWTCKDLLLQALRESQSYLVEDLER [D3I] | -0.796 ± 0.27
FIYQHRAALIARVTNVEWLLDALYGKVLTDEQYQAVRAEPTNPSKMRKLFSFTPAWNWTCKDLLLQALRESQSYLVEDLER [D3Y] | -0.794 ± 0.2

Variants of: B2
Assay: as above
Details: Homo sapiens

Variant | abundance fitness
RELEAFAERFKQRRIKLGVTQADVGAALANLKIPGVGSLSQSTICRFESLTLSHNNMIALKPWLQAWLEEAE [V63W] | -0.022 ± 0.094
REIEAFAERFKQRRIKLGVTQADVGAALANLKIPGVGSLSQSTICRFESLTLSHNNMIALKPVLQAWLEEAE [L3I] | 0.065 ± 0.07
RELEAFAERFKQRRIKLGVTQADVGAALANLKIPGVGSLSQSTICRFESLTLSHNNMIALKCVLQAWLEEAE [P62C] | -0.565 ± 0.053
